# T1: human iRhom2 (inactive rhomboid protein 2, isoform 1), endogenously expressed on human cells (human, UniProt Q6PJF5 1-856)
# T1 sequence: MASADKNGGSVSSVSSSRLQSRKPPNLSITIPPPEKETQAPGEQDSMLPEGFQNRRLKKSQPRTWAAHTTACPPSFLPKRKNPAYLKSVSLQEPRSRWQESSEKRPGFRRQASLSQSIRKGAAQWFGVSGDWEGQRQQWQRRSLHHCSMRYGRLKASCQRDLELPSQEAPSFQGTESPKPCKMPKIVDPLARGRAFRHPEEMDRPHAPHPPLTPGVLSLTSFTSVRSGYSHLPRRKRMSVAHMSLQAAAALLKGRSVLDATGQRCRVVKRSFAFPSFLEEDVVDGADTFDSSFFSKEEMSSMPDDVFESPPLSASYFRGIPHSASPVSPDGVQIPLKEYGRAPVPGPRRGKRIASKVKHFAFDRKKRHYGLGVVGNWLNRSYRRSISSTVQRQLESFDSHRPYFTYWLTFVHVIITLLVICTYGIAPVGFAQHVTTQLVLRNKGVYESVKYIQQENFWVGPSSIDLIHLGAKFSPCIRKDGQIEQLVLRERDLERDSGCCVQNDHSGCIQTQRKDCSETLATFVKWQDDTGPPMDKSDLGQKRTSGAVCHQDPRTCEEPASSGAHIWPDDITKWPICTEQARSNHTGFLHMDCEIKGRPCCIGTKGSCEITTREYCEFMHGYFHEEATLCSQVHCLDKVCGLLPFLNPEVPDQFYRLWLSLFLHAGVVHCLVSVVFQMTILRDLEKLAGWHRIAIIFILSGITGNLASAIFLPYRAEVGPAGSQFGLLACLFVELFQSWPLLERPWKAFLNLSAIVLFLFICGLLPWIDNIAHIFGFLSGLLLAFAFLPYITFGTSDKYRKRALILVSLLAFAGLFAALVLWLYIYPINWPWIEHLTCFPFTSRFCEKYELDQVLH
# T2: dog iRhom2 full length wild type, C-terminally tagged with 3 consecutive copies of the T7 epitope (dog, UniProt Q00M95 1-827)
# T2 construct: whole, on cells; also called Dog-iR2-FL-WT-T7
# T2 sequence: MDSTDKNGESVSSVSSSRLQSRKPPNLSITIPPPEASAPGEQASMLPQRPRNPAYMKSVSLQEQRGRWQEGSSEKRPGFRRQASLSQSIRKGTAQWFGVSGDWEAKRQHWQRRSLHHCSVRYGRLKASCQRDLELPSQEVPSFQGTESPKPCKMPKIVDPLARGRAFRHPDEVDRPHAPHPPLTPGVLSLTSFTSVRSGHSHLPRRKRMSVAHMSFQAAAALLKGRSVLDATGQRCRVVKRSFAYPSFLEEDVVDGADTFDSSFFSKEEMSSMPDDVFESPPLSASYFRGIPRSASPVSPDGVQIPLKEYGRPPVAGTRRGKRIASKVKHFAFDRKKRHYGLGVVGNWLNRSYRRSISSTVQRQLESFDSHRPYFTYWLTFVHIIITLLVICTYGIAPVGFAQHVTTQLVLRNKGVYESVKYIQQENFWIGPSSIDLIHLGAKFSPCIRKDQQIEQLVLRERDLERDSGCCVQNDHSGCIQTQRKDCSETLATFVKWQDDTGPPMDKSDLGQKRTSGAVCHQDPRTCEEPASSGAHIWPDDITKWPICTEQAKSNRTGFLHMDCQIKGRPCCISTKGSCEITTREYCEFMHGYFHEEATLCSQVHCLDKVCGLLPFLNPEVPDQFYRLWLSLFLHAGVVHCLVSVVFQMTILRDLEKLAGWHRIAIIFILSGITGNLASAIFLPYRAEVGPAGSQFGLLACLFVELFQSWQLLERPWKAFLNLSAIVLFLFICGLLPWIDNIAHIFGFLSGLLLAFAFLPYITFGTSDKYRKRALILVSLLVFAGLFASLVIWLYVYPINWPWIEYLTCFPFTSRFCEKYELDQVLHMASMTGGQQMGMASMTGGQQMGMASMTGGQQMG
# T3: human iRhom1, endogenously expressed on RH-30 cells (human, UniProt Q96CC6 1-855)
# T3 construct: RH-30 cells are described as endogenously negative for iRhom2 but endogenously expressing iRhom1; also called NP_071895.3
# T3 sequence: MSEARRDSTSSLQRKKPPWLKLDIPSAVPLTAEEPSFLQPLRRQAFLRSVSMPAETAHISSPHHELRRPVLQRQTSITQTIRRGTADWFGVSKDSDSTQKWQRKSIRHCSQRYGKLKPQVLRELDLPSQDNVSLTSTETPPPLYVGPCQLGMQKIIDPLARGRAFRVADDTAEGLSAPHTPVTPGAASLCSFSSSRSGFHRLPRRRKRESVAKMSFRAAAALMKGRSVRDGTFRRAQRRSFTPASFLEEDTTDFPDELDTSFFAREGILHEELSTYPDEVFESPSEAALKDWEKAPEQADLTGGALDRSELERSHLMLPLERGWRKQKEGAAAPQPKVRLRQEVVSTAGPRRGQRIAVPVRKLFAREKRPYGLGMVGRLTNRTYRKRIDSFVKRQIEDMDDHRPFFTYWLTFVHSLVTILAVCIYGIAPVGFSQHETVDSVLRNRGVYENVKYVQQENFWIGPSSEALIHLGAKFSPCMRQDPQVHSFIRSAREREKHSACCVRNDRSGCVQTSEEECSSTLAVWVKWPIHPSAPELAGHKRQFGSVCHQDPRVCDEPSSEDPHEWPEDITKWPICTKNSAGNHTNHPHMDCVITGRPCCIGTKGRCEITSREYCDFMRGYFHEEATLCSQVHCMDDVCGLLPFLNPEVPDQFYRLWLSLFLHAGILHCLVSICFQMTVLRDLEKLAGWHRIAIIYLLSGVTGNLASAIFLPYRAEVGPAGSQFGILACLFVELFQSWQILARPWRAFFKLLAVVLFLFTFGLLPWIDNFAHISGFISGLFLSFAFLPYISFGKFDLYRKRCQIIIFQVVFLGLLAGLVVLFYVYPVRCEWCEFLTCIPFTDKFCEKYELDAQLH
# What was measured:
# [1] = molecular target: T1, human iRhom2 (inactive rhomboid protein …); test: cell-based or functional assay
# [2] = molecular target: T2, dog iRhom2 full length wild type, …; test: FACS on MEF-DKO-iR2 Dog cells, 3 µg/ml
# Description: In brief, immortalized MEF-DKO-EV control cells, MEF-DKO-rhesus-iR2-FL-WT-T7 cells, MEF-DKO-cyno-iR2-FL-WT-T7 cells, MEF-DKO-dog-iR2-FL-WT-T7 cells and MEF-DKO-rabbit-iR2-FL-WT-T7 cells, as well as their respective iRhom1 counterparts, were harvested with 10 mM EDTA in PBS, washed and resuspended in FACS buffer (PBS, 3% FBS, 0.05% sodium azide), and seeded in Nunc U-bottom 96-well plates (Thermo Fisher Scientific, USA) at approximately 3×10⁵ cells per well. To pellet cells and remove supernatants, the plates were centrifuged at 1,500 rpm and 4° C. for 3 minutes. For primary staining, cells were resuspended in 100 μl per well of either FACS buffer alone (controls), mouse monoclonal anti-T7 IgG (Merck Millipore, USA) at 3 μg/ml FACS buffer or the antibodies of the present disclosure also at 3 μg/ml FACS buffer and incubated on ice for 1 hour. Afterwards, plates were centrifuged at 1,500 rpm and 4° C. for 3 minutes and washed twice with 200 μl per well of FACS buffer. For secondary staining, cells were spun down and resuspended in 100 μl per well of PE-conjugated goat anti-mouse IgG F(ab′)2 detection fragment (Dianova, Germany) diluted 1:100 in FACS buffer. Protected from light, the cell suspensions were incubated on ice for 1 hour. […] Finally, cells were resuspended in 150 μl per well of FACS buffer and analyzed using a BD Accuri™ C6 Plus flow cytometer (Becton Dickinson, Germany).
# [3] = molecular target: T3, human iRhom1, endogenously expressed on …; test: FACS on RH-30 cells (iRhom1-positive, not iRhom2-positive)
Binder,"inhibition of LPS-induced release of TNFα from PBMCs of rheumatoid arthritis patients, 1 µg/ml, chimeric antibody [1]","inhibition of PMA-induced release of HB-EGF from PBMCs of rheumatoid arthritis patients, 1 µg/ml, chimeric antibody [1]","inhibition of PMA-induced release of HB-EGF from THP-1 cells, 3 µg/ml [1]",inhibition of PMA-induced release of HB-EGF from U-937 cells [1],"inhibition of PMA-induced release of IL-6R from PBMCs of rheumatoid arthritis patients, 1 µg/ml, chimeric antibody [1]","inhibition of PMA-induced release of IL-6R from U-937 cells, 3 µg/ml [1]","inhibition of PMA-induced release of TNFα from U-937 cells, 3 µg/ml [1]",binding result [2],binding result [3]
"chimeric version of antibody 34 (antibody, V domains shown) VH: QVTLKESGPGILQPSQTLSLTCSFSGFSLSTFSLGVGWIRQSSGKGLEWLAHIWWDDEKYYNPALKSRLTISKDTSKNQVFLKIANVDAADTATYYCARAYYSKSYYALDYWGQGTSVTVSS VL: DIQMTQSPSSLSASLGERVSLTCRASQEISGYLSWLQQKPDGTIKRLIYAASTLDSGVPKRFSGSRSGSDYSLAISSLESEDFADYYCLQYANFPFTFGSGTKLEIK",66.6 % inhibition,30.6 % inhibition,76.1 % inhibition,98.1 % inhibition,45.6 % inhibition,82.8 % inhibition,87.4 % inhibition,–,–
"chimeric version of antibody 22 (antibody, V domains shown) VH: QVTLKESGPGILQPSQTLSLTCSFSGFSLSTFGMGVGWIRQPSGKGLEWLAHIWWDDEKYYNSALKSRLTISKATSKNQVFLKIANVDTADTATYYCARISNYGSNYWYFNVWGTGTTVTVSS VL: QVVLTQSPALMSASPGEKVTMTCSAGSSVSYMYWYQQKPGSSPRVLIYDTSNLASGVPARFTGSGSGTSYSLTISRMEAEDAATYYCQQWNSYPLTFGAGTKLELK",76.5 % inhibition,54.7 % inhibition,81.9 % inhibition,103 % inhibition,61.1 % inhibition,85.6 % inhibition,96.5 % inhibition,–,–
"chimeric version of antibody 42 (antibody, V domains shown) VH: QVTLKESGPGILQPSQTLSLTCSLSGFSLSTFGRGVGWIRQPSGKGLEWLAHIWWDDEKYYNPALKSRLTISKDTSKNQVFLRIANVDTADTATYYCARIQNYGSNYWYFDVWGTGTTVTVSS VL: LIVLTQSPAIMSASPGEKVTMTCGATSRISYMFWYQQKPGSSPRVLIYDTSNLASGVPVRFSGSGSGTSYSLTISRVEAEDVATYYCQQWNSYPLTFGAGTKLELK",82.1 % inhibition,76.1 % inhibition,80.8 % inhibition,103 % inhibition,73.5 % inhibition,91.8 % inhibition,96.5 % inhibition,–,–
"chimeric version of antibody 44 (antibody, V domains shown) VH: QVTLKESGPGILQPSQTLSLTCSFSGFSLSTFGMGVGWIRQPSEKGLEWLAHIWWDDDKYYNPALKSRLTISKDTSKNQIFLKITNVDTAETATYYCSRIGNYGSNYWYFDVWGTGTTVTVSS VL: QIVLTQSPAVMSASPGEKVTMTCTASSSVYYMYWYQQTPGSSPRLLIYDTSNLASGVPVRFSGSGSGTSYSLTISRMEAEDAATYYCQQWNTYPLTFGAGTKLELK",70.2 % inhibition,37.8 % inhibition,70.7 % inhibition,99.2 % inhibition,53.1 % inhibition,85.2 % inhibition,89.2 % inhibition,–,–
"chimeric version of antibody 16 (antibody, V domains shown, Chimeric version made in CHO cells, detected with anti-human IgG; the variable domains are those of clone #16; also called ch16) VH: QVTLKESGPGILQPSQTLSLTCSFSGFSLSTFALGVGWIRQPSGRGLEWLAHIWWDDDKYYNPALKSRLTISKDTSKNHVFLKIANVDTADTATYYCARITTYYYGMDYWGQGTSVTVSS VL: DIVLSQSPATLSVTPGDSVSLFCRASQSIGNHLHWYQQESHASPRLLIKYASQSISGIPSRFSGSGSGTDFTLSINSVETEDFGMYFCQQSYNWPLTFGAGTKLELK",83.6 % inhibition,66 % inhibition,73.6 % inhibition,101 % inhibition,72.3 % inhibition,84.3 % inhibition,93.7 % inhibition,binds,no binding (tested: 3 µg/ml)

# From patent US20240174744A1 (SCIRHOM, published 2024)
